Test results reported in patent publication US20220017863A1 (H LEE MOFFITT CANCER CENTER AND RESEARCH INSTITUTE, published 2022).

T1: oxoglutarate dehydrogenase (OGDH) (mouse, UniProt Q60597 41-1023, limits assumed)
T1 construct: Endogenous protein in lysate
T1 sequence (looked up): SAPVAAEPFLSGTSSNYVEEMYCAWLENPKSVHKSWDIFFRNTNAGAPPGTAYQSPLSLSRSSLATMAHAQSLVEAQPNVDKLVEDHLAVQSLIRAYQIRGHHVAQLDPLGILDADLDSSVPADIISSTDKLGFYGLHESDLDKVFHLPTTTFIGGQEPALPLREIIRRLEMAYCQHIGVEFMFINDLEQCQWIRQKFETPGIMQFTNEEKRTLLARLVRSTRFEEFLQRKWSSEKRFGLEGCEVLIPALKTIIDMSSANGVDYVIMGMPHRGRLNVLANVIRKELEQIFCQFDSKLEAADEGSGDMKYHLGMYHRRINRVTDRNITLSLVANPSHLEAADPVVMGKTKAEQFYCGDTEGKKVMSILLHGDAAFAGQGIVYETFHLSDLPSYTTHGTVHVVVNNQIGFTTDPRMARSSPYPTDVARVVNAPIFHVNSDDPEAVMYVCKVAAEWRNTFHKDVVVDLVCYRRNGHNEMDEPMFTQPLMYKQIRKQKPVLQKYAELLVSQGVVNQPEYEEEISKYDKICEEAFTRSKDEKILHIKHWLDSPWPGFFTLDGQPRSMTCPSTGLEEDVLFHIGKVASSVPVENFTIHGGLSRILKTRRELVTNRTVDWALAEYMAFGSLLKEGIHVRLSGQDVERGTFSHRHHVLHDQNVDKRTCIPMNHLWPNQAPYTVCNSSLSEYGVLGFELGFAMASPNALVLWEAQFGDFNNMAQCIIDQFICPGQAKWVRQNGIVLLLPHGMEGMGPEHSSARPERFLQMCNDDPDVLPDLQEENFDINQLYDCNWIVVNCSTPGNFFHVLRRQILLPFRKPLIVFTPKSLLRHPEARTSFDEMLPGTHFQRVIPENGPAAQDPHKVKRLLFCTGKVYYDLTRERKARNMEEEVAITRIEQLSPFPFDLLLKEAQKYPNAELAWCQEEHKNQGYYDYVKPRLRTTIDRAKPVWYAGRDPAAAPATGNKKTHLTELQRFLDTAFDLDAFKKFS

T2: phosphofructokinase P (PFKP) (mouse, UniProt Q9WUA3 1-784)
T2 sequence (looked up): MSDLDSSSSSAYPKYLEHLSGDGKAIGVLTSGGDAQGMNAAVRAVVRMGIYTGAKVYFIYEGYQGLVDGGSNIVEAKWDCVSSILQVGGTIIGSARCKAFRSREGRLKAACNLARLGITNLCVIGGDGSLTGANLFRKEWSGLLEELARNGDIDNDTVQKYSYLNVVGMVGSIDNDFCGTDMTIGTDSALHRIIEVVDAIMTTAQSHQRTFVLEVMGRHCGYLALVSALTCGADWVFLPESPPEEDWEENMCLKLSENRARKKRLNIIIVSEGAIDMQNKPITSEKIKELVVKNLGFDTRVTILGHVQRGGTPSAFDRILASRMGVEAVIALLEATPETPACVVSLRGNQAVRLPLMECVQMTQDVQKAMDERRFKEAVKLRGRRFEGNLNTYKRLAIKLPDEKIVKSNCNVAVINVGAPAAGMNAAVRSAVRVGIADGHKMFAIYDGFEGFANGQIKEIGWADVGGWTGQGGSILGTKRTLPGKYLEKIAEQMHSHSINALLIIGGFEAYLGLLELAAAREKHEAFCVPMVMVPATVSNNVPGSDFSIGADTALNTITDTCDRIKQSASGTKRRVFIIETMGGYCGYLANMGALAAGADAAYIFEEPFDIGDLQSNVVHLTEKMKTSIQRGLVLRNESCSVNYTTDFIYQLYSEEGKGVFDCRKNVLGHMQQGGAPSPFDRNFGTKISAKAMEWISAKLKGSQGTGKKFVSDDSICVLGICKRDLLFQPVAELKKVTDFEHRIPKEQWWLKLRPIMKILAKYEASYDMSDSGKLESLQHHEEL

T3: phosphoglycerate kinase 1 (PGK1) (mouse, UniProt P09411 2-417)
T3 sequence (looked up): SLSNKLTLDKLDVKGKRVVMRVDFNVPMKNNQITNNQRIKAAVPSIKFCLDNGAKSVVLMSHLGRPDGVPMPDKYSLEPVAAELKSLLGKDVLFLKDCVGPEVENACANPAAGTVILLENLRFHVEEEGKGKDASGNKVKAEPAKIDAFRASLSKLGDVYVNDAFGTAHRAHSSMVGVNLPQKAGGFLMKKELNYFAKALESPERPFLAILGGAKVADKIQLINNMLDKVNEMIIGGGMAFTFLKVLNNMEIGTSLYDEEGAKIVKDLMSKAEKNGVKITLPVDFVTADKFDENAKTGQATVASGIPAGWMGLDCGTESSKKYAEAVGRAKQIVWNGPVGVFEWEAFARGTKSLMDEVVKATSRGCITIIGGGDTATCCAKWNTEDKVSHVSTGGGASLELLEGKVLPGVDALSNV

T4: aconitase 2 (ACO2) (mouse, UniProt Q99KI0 28-780)
T4 sequence (looked up): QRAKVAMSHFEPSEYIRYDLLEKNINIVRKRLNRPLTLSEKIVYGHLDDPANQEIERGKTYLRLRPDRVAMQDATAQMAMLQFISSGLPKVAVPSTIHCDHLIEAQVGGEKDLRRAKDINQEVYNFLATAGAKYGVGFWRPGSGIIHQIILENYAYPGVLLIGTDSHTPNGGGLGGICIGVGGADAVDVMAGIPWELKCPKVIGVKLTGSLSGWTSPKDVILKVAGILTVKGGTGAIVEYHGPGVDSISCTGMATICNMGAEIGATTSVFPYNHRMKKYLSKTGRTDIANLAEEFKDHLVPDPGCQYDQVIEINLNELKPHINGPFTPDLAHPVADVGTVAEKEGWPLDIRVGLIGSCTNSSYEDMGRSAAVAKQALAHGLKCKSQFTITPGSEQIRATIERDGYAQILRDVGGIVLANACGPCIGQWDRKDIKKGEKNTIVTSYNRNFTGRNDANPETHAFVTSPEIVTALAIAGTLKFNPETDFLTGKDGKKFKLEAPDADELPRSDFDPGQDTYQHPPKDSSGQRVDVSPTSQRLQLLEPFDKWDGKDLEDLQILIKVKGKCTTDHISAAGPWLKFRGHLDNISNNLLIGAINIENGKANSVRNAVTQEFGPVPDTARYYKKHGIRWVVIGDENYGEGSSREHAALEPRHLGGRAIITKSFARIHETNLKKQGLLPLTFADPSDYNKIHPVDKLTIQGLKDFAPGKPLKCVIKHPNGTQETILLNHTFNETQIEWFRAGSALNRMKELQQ

T5: Hexokinase 1 (HK1) (mouse, UniProt P17710-3 1-918, limits assumed)
T5 construct: Endogenous protein in lysate
T5 sequence (looked up): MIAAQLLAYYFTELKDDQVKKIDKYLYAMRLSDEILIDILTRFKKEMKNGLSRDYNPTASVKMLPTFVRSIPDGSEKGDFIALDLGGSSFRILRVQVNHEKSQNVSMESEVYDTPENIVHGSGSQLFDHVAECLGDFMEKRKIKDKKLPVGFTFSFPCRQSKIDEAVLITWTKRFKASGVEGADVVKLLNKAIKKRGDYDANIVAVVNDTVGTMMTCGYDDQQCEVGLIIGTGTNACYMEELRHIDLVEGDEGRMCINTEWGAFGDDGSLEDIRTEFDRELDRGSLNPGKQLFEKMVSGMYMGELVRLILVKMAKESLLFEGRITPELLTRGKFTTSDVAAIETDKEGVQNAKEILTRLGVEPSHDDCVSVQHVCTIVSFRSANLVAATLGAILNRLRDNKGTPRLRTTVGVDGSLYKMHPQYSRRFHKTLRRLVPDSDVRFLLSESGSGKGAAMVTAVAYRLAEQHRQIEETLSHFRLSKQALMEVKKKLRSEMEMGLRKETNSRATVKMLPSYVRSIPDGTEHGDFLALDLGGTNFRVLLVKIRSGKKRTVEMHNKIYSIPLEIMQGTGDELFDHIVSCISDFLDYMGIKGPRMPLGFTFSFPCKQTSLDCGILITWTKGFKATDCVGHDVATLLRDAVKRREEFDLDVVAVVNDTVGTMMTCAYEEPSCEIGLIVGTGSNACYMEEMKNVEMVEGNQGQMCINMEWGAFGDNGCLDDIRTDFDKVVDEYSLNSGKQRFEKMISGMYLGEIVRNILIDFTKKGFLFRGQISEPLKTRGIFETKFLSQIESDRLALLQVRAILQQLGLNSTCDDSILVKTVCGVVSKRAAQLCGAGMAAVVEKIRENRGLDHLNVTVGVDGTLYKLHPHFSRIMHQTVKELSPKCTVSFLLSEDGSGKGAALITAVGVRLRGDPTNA

T6: alanine, serine, cysteine-preferring transporter 2 (ASCT2) (mouse, UniProt P51912 1-553)
T6 construct: Endogenous protein in lysate; also called Glutamine transporter ASCT2; ACST2
T6 sequence (looked up): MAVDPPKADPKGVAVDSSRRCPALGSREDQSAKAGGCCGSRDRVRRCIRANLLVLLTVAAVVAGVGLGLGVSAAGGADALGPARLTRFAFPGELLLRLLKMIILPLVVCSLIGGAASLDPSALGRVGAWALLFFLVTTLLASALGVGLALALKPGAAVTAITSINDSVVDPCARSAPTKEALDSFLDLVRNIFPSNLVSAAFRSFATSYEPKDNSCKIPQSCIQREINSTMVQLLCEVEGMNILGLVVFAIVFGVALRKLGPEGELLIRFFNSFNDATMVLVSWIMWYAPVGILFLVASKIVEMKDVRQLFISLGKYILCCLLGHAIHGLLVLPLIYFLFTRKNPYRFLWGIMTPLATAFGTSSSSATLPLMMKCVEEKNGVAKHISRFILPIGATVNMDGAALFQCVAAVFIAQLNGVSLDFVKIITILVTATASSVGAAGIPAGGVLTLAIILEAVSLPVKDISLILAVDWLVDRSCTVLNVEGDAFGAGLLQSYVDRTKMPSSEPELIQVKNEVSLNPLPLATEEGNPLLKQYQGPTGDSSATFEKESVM

B1: aldolase A (ALDOA) (enzyme, mouse, UniProt P05064 2-364, looked up)
chain: PHPYPALTPEQKKELSDIAHRIVAPGKGILAADESTGSIAKRLQSIGTENTEENRRFYRQLLLTADDRVNPCIGGVILFHETLYQKADDGRPFPQVIKSKGGVVGIKVDKGVVPLAGTNGETTTQGLDGLSERCAQYKKDGADFAKWRCVLKIGEHTPSALAIMENANVLARYASICQQNGIVPIVEPEILPDGDHDLKRCQYVTEKVLAAVYKALSDHHVYLEGTLLKPNMVTPGHACTQKFSNEEIAMATVTALRRTVPPAVTGVTFLSGGQSEEEASINLNAINKCPLLKPWALTFSYGRALQASALKAWGGKKENLKAAQEEYIKRALANSLACQGKYTPSGQSGAAASESLFISNHAY
notes: also called Aldolase 1
B2: succinate-CoA ligase alpha subunit (SUCLG1) (enzyme)
chain: not shown
notes: also called succinyl-CoA ligase alpha subunit; Succinyl-CoA Ligase
B3: Sirt2 (enzyme, mouse, UniProt Q8VDQ8 2-389, looked up)
chain: AEPDPSDPLETQAGKVQEAQDSDSDTEGGATGGEAEMDFLRNLFTQTLGLGSQKERLLDELTLEGVTRYMQSERCRKVICLVGAGISTSAGIPDFRSPSTGLYANLEKYHLPYPEAIFEISYFKKHPEPFFALAKELYPGQFKPTICHYFIRLLKEKGLLLRCYTQNIDTLERVAGLEPQDLVEAHGTFYTSHCVNTSCRKEYTMGWMKEKIFSEATPRCEQCQSVVKPDIVFFGENLPSRFFSCMQSDFSKVDLLIIMGTSLQVQPFASLISKAPLATPRLLINKEKTGQTDPFLGMMMGLGGGMDFDSKKAYRDVAWLGDCDQGCLALADLLGWKKELEDLVRREHANIDAQSGSQAPNPSTTISPGKSPPPAKEAARTKEKEEQQ
notes: Endogenous protein immunoprecipitated from T cell lysates with anti-Sirt2 (Sigma #9441); also called Sirtuin 2

What was measured:
Sirt2 = molecular target: B3; test: co-IP/immunoblot and reverse co-IP/immunoblot, activated WT mouse CD3+ T cell extracts
[1] = molecular target: T1, oxoglutarate dehydrogenase (OGDH); test: as above
[2] = molecular target: T2, phosphofructokinase P (PFKP); test: as above
[3] = molecular target: T3, phosphoglycerate kinase 1 (PGK1); test: as above
aconitase 2 (ACO2) = molecular target: T4, aconitase 2 (ACO2); test: as above
Hexokinase 1 (HK1) = molecular target: T5, Hexokinase 1 (HK1); test: co-IP with anti-Sirt2, immunoblot, activated WT mouse CD3+ T cell extracts (FIG. 3B)
pyruvate kinase M (PKM) = molecular target: T7, pyruvate kinase M (PKM) (mouse, UniProt P52480 1-531, limits assumed); test: reverse co-IP with antibody to the enzyme, anti-Sirt2 immunoblot, activated WT mouse CD3+ T cell extracts (FIG. 3C)
T7 construct: also called PKM1/2; pyruvate kinase isozymes M1/M2
T7 sequence (P52480 whole entry): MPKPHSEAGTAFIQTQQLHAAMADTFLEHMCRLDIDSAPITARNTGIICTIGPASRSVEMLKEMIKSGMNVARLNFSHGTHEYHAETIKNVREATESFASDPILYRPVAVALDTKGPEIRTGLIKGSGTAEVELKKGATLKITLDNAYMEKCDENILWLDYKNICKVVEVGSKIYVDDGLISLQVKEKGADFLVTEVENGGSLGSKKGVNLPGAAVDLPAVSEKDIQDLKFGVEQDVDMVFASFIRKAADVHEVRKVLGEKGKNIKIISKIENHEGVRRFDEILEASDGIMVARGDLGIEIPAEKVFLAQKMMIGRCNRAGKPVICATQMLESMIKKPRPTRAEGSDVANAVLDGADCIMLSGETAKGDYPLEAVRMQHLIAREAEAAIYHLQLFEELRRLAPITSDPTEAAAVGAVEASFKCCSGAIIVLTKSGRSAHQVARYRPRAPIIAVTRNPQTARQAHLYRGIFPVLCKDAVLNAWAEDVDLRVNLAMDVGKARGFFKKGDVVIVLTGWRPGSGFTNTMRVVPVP

[4] = molecular target: T6, alanine, serine, cysteine-preferring …; test: IP of Sirt2, LC-MS/MS, activated WT mouse CD3+ T cell extracts
[5] = molecular target: succinate dehydrogenase subunit alpha (SDHA) (mouse, UniProt Q8K2B3 43-664); test: as above
Chain of succinate dehydrogenase subunit alpha (SDHA) (Q8K2B3 43-664 limits assumed): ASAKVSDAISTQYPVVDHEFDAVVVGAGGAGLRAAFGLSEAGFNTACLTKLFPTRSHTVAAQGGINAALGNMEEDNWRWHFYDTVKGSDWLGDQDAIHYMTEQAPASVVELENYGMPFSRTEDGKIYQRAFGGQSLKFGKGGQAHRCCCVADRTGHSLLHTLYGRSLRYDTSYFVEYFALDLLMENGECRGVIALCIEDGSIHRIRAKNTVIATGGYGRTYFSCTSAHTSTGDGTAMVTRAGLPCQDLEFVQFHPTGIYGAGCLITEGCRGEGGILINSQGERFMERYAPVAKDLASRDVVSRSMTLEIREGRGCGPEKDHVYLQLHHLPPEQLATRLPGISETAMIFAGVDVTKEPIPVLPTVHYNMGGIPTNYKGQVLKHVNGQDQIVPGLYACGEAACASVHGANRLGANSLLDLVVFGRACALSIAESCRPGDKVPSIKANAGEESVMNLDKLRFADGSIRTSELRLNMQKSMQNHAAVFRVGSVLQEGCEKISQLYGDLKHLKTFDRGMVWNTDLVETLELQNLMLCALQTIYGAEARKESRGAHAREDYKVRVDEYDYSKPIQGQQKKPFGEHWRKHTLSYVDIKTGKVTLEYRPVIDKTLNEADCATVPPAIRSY

Measured: binding result

B1
binds: Sirt2

B2
binds: Sirt2

B3
not listed: Sirt2
binds: all other assays above
